B1: Calcium and calcium/calmodulin-dependent serine/threonine-protein kinase (Lotus japonicus), A0AAR7 (parent)
chain: MGYDQTRKLSDEYEISEILGRGGFSVVRKGTKKSGNEKTQVAIKTLRRLGSSPSGTGGGQKSTATVMGFPSLRQVSVSDALLTNEILVMRRIVENVSPHPNVIDLYDVCEDSNGVHLVLELCSGGELFDRIVAQDKYAETEAAAVVRQIAAGLEAVHKADIVHRDLKPENCLFLDSRKDSPLKIMDFGLSSVEEFTDPVVGLFGSIDYVSPEALSQGKITAKSDMWSLGVILYILLSGYPPFIAQNNRQKQQMIINGNFSFYEKTWKGITQSAKQLISSLLTVDPSKRPSAQELLSHPWVRGDKAKDEQMDPEIVSRLQSFNARRKLRAAAIASVWSSTIFLRTKKLRSLVGTYDLKEEEIESLRIHFKKICGNGDNATLSEFVEVLKAMKMPSLIPLAPRIFDLFDNNRDGTIDMREILCGFSSLKNSKGDDALRLCFQMYDTDRSGCITKEEVASMLCALPEECLPADITEPGKLDEIFDLMDANSDGKVTFEEFKAAMQRDSSLQDMLLSSLRPS
partner: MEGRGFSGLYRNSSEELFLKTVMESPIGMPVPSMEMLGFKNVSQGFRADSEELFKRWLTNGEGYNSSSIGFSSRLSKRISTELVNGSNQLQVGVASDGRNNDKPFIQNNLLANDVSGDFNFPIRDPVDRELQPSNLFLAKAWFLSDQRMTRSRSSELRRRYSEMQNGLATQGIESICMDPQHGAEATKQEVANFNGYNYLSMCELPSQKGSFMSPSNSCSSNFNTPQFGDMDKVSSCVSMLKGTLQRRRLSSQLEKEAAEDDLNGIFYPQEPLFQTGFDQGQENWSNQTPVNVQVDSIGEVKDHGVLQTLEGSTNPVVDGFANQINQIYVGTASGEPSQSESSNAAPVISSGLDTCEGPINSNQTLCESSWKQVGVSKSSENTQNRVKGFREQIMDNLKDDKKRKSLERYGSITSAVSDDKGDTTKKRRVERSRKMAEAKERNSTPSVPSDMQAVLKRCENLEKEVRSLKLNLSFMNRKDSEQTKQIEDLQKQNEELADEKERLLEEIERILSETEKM

Variants of: B1
Settings: with cclop_lotja CYCLOPS
For K44A;T265I, the “effect of a mutation on the interaction” value was “disrupting interaction”. K44A was tested, and the “effect of a mutation on the interaction” value was “disrupting interaction”. G30E was tested, and the “effect of a mutation on the interaction” value was “disrupting interaction”.

Source: IntAct's records for PubMed 19074278
